# In publication PMC2629542 (The Journal of biological chemistry, 2006):
# B1: N-domain of CEACAM6 (domain or fragment)
# chain: KLTIESTPFNVAEGKEVLLLAHNLPQNRIGYSWYKGERVDGNSLIVGYVIGTQQATPGPAYSGRETIYPNASLLIQNVTQNDTGFYTLQVIKSDLVNEEATGQFHVYPEL
# Target: Dr hemagglutinin (DraE) adhesin, Dr fimbriae (E. coli)
# Test: SPR
binder,measurement,value
B1,Kd,30.1 µM
